Measurements published in paper PMC4856295 (Nature, 2016).

B1: human TFIIA (conserved three-subunit core TFIIA) (complex)
chain 1: ANSANTNTVPKLYRSVIEDVINDVRDIFLDDGVDEQVLMELKTLWENKLMQSRAVDG
chain 2: GAEDGQVEEEPLNSEDDVSDEEGQELFDTENVVVCQYDKIHRSKNKWKFHLKDGIMNLNGRDYIFSKAIGDAEW
chain 3: AYQLYRNTTLGNSLQESLDELIQSQQITPQLALQVLLQFDKAINAALAQRVRNRVNFRGSLNTYRFCDNVWTFVLNDVEFREVTELIKVDKVKIVACDGKNTGSNTTE
B2: TAF6, subunit of endogenous human TFIID (natural protein)
chain: not shown

What was measured:
[1] = target: TATA-binding protein (TBP), subunit of endogenous human TFIID (human, UniProt P20226 1-339); experiment: cryo-EM structure
[2] = target: the molecule itself; experiment: cryo-EM structure

Chain of TATA-binding protein (TBP), subunit of endogenous human TFIID (P20226 whole entry): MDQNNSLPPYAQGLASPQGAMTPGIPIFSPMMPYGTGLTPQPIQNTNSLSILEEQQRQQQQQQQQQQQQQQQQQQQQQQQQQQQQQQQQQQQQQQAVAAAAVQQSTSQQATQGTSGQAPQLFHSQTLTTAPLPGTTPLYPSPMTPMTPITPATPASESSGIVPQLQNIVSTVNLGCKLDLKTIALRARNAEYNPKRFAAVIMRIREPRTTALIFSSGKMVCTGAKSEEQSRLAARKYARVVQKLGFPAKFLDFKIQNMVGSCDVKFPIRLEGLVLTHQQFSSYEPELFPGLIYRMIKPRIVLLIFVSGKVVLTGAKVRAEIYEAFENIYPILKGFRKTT

Binder	binding result [1]	stoichiometry N [2]
B1	binds	
B2		2
